This is an account of results in publication PMC9449495, “Transcription factor VvibHLH93 negatively regulates proanthocyanidin biosynthesis in grapevine”.

Series [1] deals with T1, VvibHLH93 (Vitis vinifera, UniProt A0ABY9CC89 1-331). In words: EMSA; LightShift Chemiluminescent EMSA Kit (Thermo Fisher) per manufacturer's protocol; buffer, salt, pH and temperature not stated. The note with it: protein: recombinant, tags: His (pET-32a fusion), chain copies: 2. (Mobility shift assays separate free from complexed probe on a gel.)
T1 sequence (A0ABY9CC89 entry or part of it): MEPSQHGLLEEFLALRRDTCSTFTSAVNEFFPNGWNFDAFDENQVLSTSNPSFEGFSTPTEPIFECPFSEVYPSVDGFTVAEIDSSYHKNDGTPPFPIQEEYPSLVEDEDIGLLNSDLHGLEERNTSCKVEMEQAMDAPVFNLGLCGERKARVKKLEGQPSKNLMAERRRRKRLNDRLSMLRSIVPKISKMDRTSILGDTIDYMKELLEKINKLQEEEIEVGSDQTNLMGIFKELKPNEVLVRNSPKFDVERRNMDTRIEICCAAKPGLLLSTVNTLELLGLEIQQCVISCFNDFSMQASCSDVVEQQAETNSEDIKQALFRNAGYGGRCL
For series [2], the target named is T1, VvibHLH93. Description: competition; 50x unlabeled competitor vs N1; shifted band less abundant; LightShift Chemiluminescent EMSA Kit (Thermo Fisher) per manufacturer's protocol; buffer, salt, pH and temperature not stated. The note with it: protein: recombinant; tags: His (pET-32a fusion); chain copies: 2.

B1: VviLAR1 promoter E/G-box mutant probe (dsDNA)
DNA 1: GAGTCGTTGAGGTATATCATTTTTTTGTTAGAAAATCTTATG
DNA 2: CATAAGATTTTCTAACAAAAAAATGATATACCTCAACGACTC
As to B1, the binding result with VvibHLH93 [1] is recorded as “no binding”.

B2: VviLAR1 promoter E/G-box probe (tandem MYC and G-box) (dsDNA)
DNA 1: GAGTCGTTGAGGCACATGATTTTTTTGTTAGGACGTGTTATG
DNA 2: CATAACACGTCCTAACAAAAAAATCATGTGCCTCAACGACTC
B2: the binding result in the series with VvibHLH93 [1] (label: 3' biotin) was “binds”.

B3: VviLAR1 promoter E/G-box cold probe (dsDNA)
DNA 1: GAGTCGTTGAGGCACATGATTTTTTTGTTAGGACGTGTTATG
DNA 2: CATAACACGTCCTAACAAAAAAATCATGTGCCTCAACGACTC
As for B3, the binding result with VvibHLH93 [2] is “binds”.
